Test results reported in the domain aggregation screens of Martell et al. (2025).

Assay: soluble fraction after stress (log2 fold change); higher = more stays soluble; pooled small domains, quantitative proteomics
Details: stress: 50 degC
In short: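 Quantitative proteomics served as the high-throughput read-out for pooled custom libraries of small protein domains. Each was stressed at 50°C. Aggregation propensity is expressed as the base-two log fold change in soluble protein after stress. A higher value means a larger share of the protein remains in solution.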

Sequence | soluble fraction (log2)
HMFEMPTSLVRTLSAIAIKQPVMQSEIIKLRGAGAYDHIKELIIRELVHRKEEGRSPILTTTKKFQEYFRL | -2.33
HMQISDDSELIKIVDNILANSQKQIDDYHNGKTNLFGFFVGQVMKETKGKANPVKVNEILKDKL | 0.00641
HMEPELSVDMKPLDGLLLAIKKELQAAQMYTRLARASADAEQKMVFEQLANMEKGHKARLEDIYT | -0.0279
HMITKENYLEKIKEIKVNEFPASMRELYDFFNEATRNGTDWSAYEEGNVKYVVDAYLERLNLLYKSN | -0.175
HMSMDPYTVLGVNKSSTDSQIKNAYKNLAKQHHPDRGGNEAKFKEISTAYEQIKTAEKRQQYDMSQQF | 0.383
HMKKYIEIYNYYKQLIESEQLKSGDKMPSVRKATKIFNVSKTTVQNAYFDLQADGYIIAAPKSGYYVTEM | -0.295
HMKDLDSLSQEAKSVYAVFSDKPIHIDDIKRKTGLDFSKLFKAVTELELAELISSGEGKMYSL | -0.0108
HMKPNEYVSGETFPYLGKNYRLKVLHGSENSVRLKGGYFITTISNRDSQLSTVKSLLEDWYQTHADK | 0.0439
HMPSHALFWTLLKEVPGYDPHYKDVIKEGIVHEHSGGRTTSLSEMYTKYPREYSLMIEAMKG | -0.487
HMTGYVMIRVDGLSLEKFLNMAAEAGVRVSDVRRASYTVLYAVVSPRDLKKLQSVAPEKYTVTVR | -0.664
HMEKFTGELSQEEKNVLDALSHEEMHVDIIIKLTKLETSAVSSTLSLLEIKGLIKNIGGQNYIK | 0.486
HMGALTGQERRAEIMNILRQSTMPLSGAALGKQLGVSRQVVVQDIALLRQSGEEIYATNRGYVTG | -0.129
HMLKLEDIKKDAQVKGIVDGQIVRIVTVEPIGDHALTVYYKDHQGQFAERMLFRSDELNLELATA | -0.00641
HMDNVINDGMQVRFTGNVDINGTPLKIYDRIYTAEGISDDTVVLMLGNDVYARVYLSDVVPAD | -0.405
HMDIPGITAVKPQAAFYMFPKIDVKKFNIVNDEKFALDLLQDKKILIVQGSGFNWKQPDHFRVV | -0.103
HMKLVAAGYHQNRLLVLLGIQAEELQAKRLLASFDRFRGREATPKPPIHDSARRWLRDTYHHVMNQVPVEL | -1.07
HMSNIQLAANLQRLRKDHHFTQTQFSKKLNISRQAYSNYETGKRIPDLDIIIRIANIYHISLENLL | -0.389
HMFLTSDEGKIMQLLEDKQRITRKDAQELLGVSQSTAGRILKTLVDNGQITQRGGGRTTRYELIK | 0.184
HMKKAIYPGSFDPLTLGHIDIIKRASGIVDELVVGVLNNSAKNSLFSLDERVSMIEEMTKDLPNVSVTSFD | 0.136
HMNSNSLSFSKFMQEVEAGRVIEVQIKGNDIQGELSDGSKFKTYSPNYPNLVDKLSENKVSIVATPL | 0.038
HMNFSRQREIIYEQVRNFPVHPTAEEVYRALKNDNPNLSLGTVYRNLNQLSEAGMLLKIPIADGSDRFDGR | -0.492
HMFIVTDQMQRVLDYITEKEKATNNDLEELLGVKSTRIYTITRKLIQHNLIIPVGKGKNKYYIL | -0.79
HMEPLIRTLEEQIAEKIKNYRKGTRVYDAEHVDRWISQLPEEERMVVLTETNRLLEQNYVDQAKLME | -0.107
HMDDPISSMVNRIRLAFGLSVTDLAAVLGVERPTIYSWLKDGSTPAPARLTRVRQVLSLADTW | -0.194
HMIIMVNLYQIWDKEVQGLDSVGAKPEQIEARRQAIAAHFESKARQAGMSSKDIYATLDNFDTYSRQKTS | -2.28
HMGPVRDLGLLESAAHRPTTALWGRDVYATIEKKAAALLDSLVRDRPLADGNKRLGWLAALV | 0.0437

Sequence | soluble fraction (log2)
HMVSGVMAQQAIAVLVQQEDKHAPLSDQALAERLQVQGIDISRRTVAKYRQLLQIPSAATRR | -0.419
HMLDKKKHLEQGRKIIEDQLAKYKIQPSFDTLKKLSAYYGLNNKEQLYAQVGMGFLELENLDEILQ | ≥ 0.62
HMKLIRLGKAAGELNVGMSTLAEFLQSKGHSVDPNPNTKLTPEQYALLRMEFAADQTLKKLTKQP | 0.198
HMTSKVTVLAVNGRITVSGKEQDETVSVYDTGGRLLYQGESDVINVPRKAMYIVTVSRKSYKVIV | -0.941
HMGYDLLFQQALGFHEQGRLNEAENIYRQILETAPNNPDILNLLGLIAQQKGLHAQAVDYFYQAIRL | -1.41
HMKSYTYNPNYLSDYNAYRLGIPLEALERLQLHRSTGRYVNSLSDFQSVTGISDSLKHSLSSSLRFPN | -0.876
HMGIRDIHITVNGESLKLSKKQNYIFVDIFDFYPFDLSILGGSKLITTINGEQAEFTSPLKDGDVVELYWK | -0.61
HMPDVAIMNVSVEPEKKVVRLQVKAISLEALLDFSTRLEAIPARVELQNHTPSKELSQKWAVNATLIVIY | 0.146
HMGRQVTVPNVTGMLVEEARAAISEAELWVDSPRAVQGEVTRQEPARGERLSPGQEVRIYTES | 0.31
HMETINERVNSIIEREGHTVATFAKKIGVPWTTIKNIVSGRNAPSYDIMVKIINAVDWVDANYLVMG | -1.98
HMKGTLPEMITSREEVVLKFMVNGWDAKRIASELDISVLTVRKHIANIYEKLHVQSKAEIISMAHQQKWFN | -1.52
HMGLWWTEAERELVKTTIEQLYKDTNIAEPVDSKNLRASIPALKAMRTGLSAENQARVDTLLGALQV | -0.157
HMQVLSESDVEDIKAISGGDKAYDNLMEWAGSKLSKQDAKDYDDVLATGNKTAITFAVKALMAQYENAN | -0.299
HMDERLAKLTPQERKILDLIAEGATNRQIGTELHLAEKTVKNYVSNMLMKLGMSRRTEAAVFAVKASIN | -0.64
HMNYDPEEKITQIRTMLEIHSRIEFNEIITPATRRGEIIIIFLALLHMIKRGYIVVRQHRLFGDITIFARD | -0.152
HMIEKGSDALEKELRKNNLSINEFLTNKNIDIILDELKLKDIDDLYVNIALGKYTPNQIIKIVNK | 0.237
HMVVTRVKAIDVVNIRKSDSETADKLGKAAVGDEFDLLEKKGNGWSKISYEGGEAYIKSEFLEPSE | 0.145
HMDDVIDVYATYDVSPTNQISNIKLYSDAAHANPVTGEAGKSYNDITEGHPGYQFRWSGTTWVPI | -0.295
HMSFNNHYEILQVQPSADREVIEAAAKALLKKHHPDLGGRNTITSHIVQAKKVLTDTSQRADFDARLRERL | -0.0959
HMQPNVTRERILAAAMTVFAQKGWQKTSLDEVAAAAGMTKGAIYWHFRNKNDLFFALLDARLQRD | -1.97
HMRIDVWLAENGFAPSRQKAQDLIAAGRVFQTDPSGRRQKVSKASAAVDPALSPKIEVIPDPE | 0.161
HMLLREKLESVLPFISVSALAKTYFKRSPQWFYQRLNGSIVNGKPIRFNDAELKTLAGALTDIGKKISQAA | -0.322
HMEDDIRSSIRTLDQFISKNQITLSKDVKNYILQLLSNDRMVTINELEKIKIYYDSNENIDLDTVKILLN | -0.754
HMARRLELEDIPVDEVLFTASRNLVDAIEVMDPSRQAPMIQPWLKQALEWAVGALGFSKEDAVATLTSD | -0.0273
HMEANAYFDAYPDVAAEWARLSGSDEGKATLSAIGVTTPQQFAQYHYTTFGSKENRNAPVGYTP | 0.0756
HMARKTIFHSLLGELEQRIGRLPAGTILPAEQALADEYGVSKPTLRRALAELAEHGLITKENGIGSVVI | -0.45

Sequence | soluble fraction (log2)
HMSETVYQYVARQLRDMLGSGEIPVGQQLPTYRELAKRFQVSLSVIQRAMRQLKAEAVVSIAHGQGVKAVR | -0.42
HMPKRYAGPDIIAIYGSDVFFRVGSGDGLMVIPVGRSMDNIEVVSVDAPRSVELMWKDGGPFTVPV | -0.165
HMGAGDKQAQQASLMQIIALQKEGMALGLVEPKHLYHSFSKMIENAGFKDVQSFAVDPSTQQ | -0.0552
HMMLVKKMLNGIMMKEITIKELADQYDVSTRTIQLKIKKLGYEWDSKESIYRYVGKESEPLDVDFSTLI | -3.29
HMSTRKAFVNGDGVRLRSGPGTNHSIRASLTKGQTVFVTGTKDGWASVSVQGGASGWVSADLLKYE | 0.232
HMFGEDNLKSKEIKERVTEVAKHADDPVWIEARRKWKDENPDQNVKDYQQAYISGRIHELPWDVSYI | 0.142
HMQSLIVPVPKPEDDPVYKDGIKQDPVEVVSIWLGRDYLNMILNLKVSTGKGHTFGIVEDVS | 0.0321
HMDSEEVYQMTKHKMDAAQISVAKRIHINLVLVKLLELHHLGYDLRHYHAQHHAFIKRLNLPEYFRFD | -1.66
HMTPFVINVDRHGAVIINEKTVDIDEAVVLARQERSQGKSILLAGDKKAPYEAIIRVLDALKQAG | -0.185
HMLVYQRLDKDNFIFEGKTLLNDIYKILDIESNYFEAIRGEADSIAGLLLEIAKSIPTINTEF | -0.171
HMKNLKPSTEVILKELVKRYPDQTEFRKQQIVDVGQSFGYKGKDYGPIFDADNRVKIGTYDLAGLIVPLQR | -0.0461
HMSKNYYEILGVTPDVELSQLKAVYRRLVRKYHPDINPDGELIFKDITEAYEVLSDEKQRKQYDMINGF | -0.0246
HMNDSGIIGVVINDHEKYEGHVLEDGFISSSLSALSREIDVAGYFMMVKTVVYEGFFQELKGIGNV | -0.00726
HMNMENIADKIGKIYESLPEDLKLMIKYRDIDDLTYDEIAVKADLPVGTVRSRLHRAREQLLKELEKN | -0.143
HMNSTGVYQRPDGFWEYRFTLSINGKKLPRRKSTDLMGNKLKTKREAIKAREEAIIALRTEKTI | -0.994
HMYLHSEFSPVTGQELHMKYDDSSTEEDPVMLVEGKDIQGNDFVKKIHLNDVDPENATPAEMTALRVHL | -0.541
HMPYSPTPGSAPARLIAHLQEHGDSVNRTAIAELLQVDRKNVHNYLARAVTHGLLLRHGGGAYSLP | 0.086
HMSQPLYWQIRRMVIDHDDANDVLQNTFIKAWSNIGSFRGDAKFSTWLYKIAVNESITFINKKKVQN | -0.469
HMKRRSLQVGDIVQVRSLNVKGEVVSIGKNEVVVAVGRLQMRAGFDDLDFKERPKEEREVESV | -0.143
HMVEGMQFDRGYQSPYFVTNAEKMVAELDNPYILLVEKKISSMKELLPVLEPVAQQGKSLLIISEEVEG | -0.0564
HMDQINNDLRKLIEFLPEDQKTVLKMRHFQEMSFKEIAKATGVSINTALGRMRYALINLRKLIEENEI | -1.41
HMNGELSQRQWQILRLIAQGLSNEQMARQLFVAPSTIKTHINHLYAKLGVRTRAEAQAIARQKLMA | -0.619
HMRMTPRQALDDLIREREETYAAVSRLLGRNTAYIQQYIKRGTPARLDQSDIAQLALHFDVPAKLLGGKE | -0.943
HMQTYNQLKRGMTEWIQAGQKQKAYELFAGVAGQLSLSSAAGKKQYNELVTILNRAGFGIPLE | -0.428
